From PMC4556617, “Experimental Evidence for a Revision in the Annotation of Putative Pyridoxamine 5'-Phosphate Oxidases P(N/M)P from Fungi” (PLoS ONE, 2015)

T1: Pdx3 (Saccharomyces cerevisiae, UniProt P38075)
T1 construct: full-length, synthetic gene in pET28a (NdeI/BamHI), N-terminal His-tag cut by thrombin; E. coli BL21 DE3 Rosetta; 27189 Da; homodimer
T1 sequence (P38075 1-228): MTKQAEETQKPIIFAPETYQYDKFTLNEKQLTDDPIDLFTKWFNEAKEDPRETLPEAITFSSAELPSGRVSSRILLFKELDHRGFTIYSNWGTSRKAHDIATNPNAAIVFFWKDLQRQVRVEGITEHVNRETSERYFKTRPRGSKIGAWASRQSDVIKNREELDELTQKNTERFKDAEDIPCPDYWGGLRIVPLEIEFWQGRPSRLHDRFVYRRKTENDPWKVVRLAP

B1: Ylr456w (natural protein, S. cerevisiae, UniProt Q06199 1-204, looked up)
chain: MKLNEQIPKDLLRLIKSSKYVHVATCSSNCIPSVSLMHYIFVSSAETFHKHEYSIEIDCNDYIIFTVFEKSVTFRNVMSNPNVALLFHDWITAKNLTLRKKSVHSKDDFSFVESESTKFNNFLRDLNQSELNQVSATINGIADIVNPNSEESTYYRRLLLTVNPDADIFILGEDTAIIKVNIQKIKVSDMENNTSTYGQTVQPV
notes: Ylr456w, product of the ORF YLR456W of S. cerevisiae (strain BY4741 cDNA), amplified with primers from the ATG to the stop codon, cloned NdeI/BamHI into pET28a; expected mass after thrombin digestion 23574 Da; A few residues of the vector probably remain at the N-terminus after thrombin cleavage (surmised); also called putative P(N/M)P oxidase; source: E. coli BL21 DE3 Rosetta, purified (His Trap …)
B2: Ypr172w (natural protein, S. cerevisiae, UniProt Q06608 1-200, looked up)
chain: MAWTSTLPAHLLNLIKNSKYVHVATCSKDCIPSVALMNYIYVPGEKLFGQTDNKNDYIIFVSPQDTQKFYNIKENPKVALLFHDWIIANNLSVGKESISGTPTPTSIPHEEQRQSELLNLLQELNQAELNQMSASIGGETEIVNPESEESKYYKDLILKANPDAKAFIFEKNTAVVKVRIDNARVSNNENRTMFLSKGKS
notes: expected mass after thrombin digestion 22788 Da; A few residues of the vector probably remain after thrombin cleavage (surmised); also called putative P(N/M)P oxidase; source: E. coli BL21 DE3 Rosetta, purified (His Trap HP, thrombin digestion, Superdex 200 gel filtration); not shown: His-tag, N-terminal, cleaved
B3: Pdx3 (enzyme, S. cerevisiae, UniProt P38075 1-228, looked up)
chain: T1 sequence (P38075 1-228)
notes: expected mass after thrombin digestion 27189 Da; A few residues of the vector probably remain after thrombin cleavage (surmised); also called P(N/M)P oxidase; pyridoxamine 5'-phosphate oxidase; source: E. coli BL21 DE3 Rosetta, purified (His Trap HP, thrombin digestion, Superdex 200 gel filtration); not shown: His-tag, N-terminal, cleaved

Columns and labels:
Pdx3 = molecular target: T1, Pdx3; assay: FMN fluorescence quenching titration (Ex […] nm, Em […] nm); size-exclusion chromatography co-elution; assay type: binding; settings: 1 uM FMN titrated with protein, 25 C, pH 7.4; protein as purified already carries FMN
[1] = molecular target: the molecule itself; assay: SEC; analytical size-exclusion chromatography, Superdex 75 3.3/300, 10 uM protein, 10 uL injected, buffer A (20 mM Tris, 150 mM NaCl, 1 mM DTT pH 7.4), tryptophan fluorescence; calibrated with transthyretin tetramers (54 kDa) and chymotrypsin monomers (25 kDa)

Molecule	FMN fluorescence quenching titration (Ex 450 nm, Em 520 nm); size-exclusion chro (Pdx3)	stoichiometry N [1]
Cc1cc2nc3c(=O)[nH]c(=O)nc-3n(C[C@H](O)[C@H](O)[C@H](O)COP(=O)(O)O)c2cc1C [FMN]	Pdx3 produced a clear quenching effect due to FMN binding	
B1		2
B2		2
B3		2
